# Source: publication PMC11791206 (Nature Communications, 2025)
# B1: mAb 9.6.3A6 (3A6 IgG) (antibody, V domains shown)
# VH: EVQLLESGGGLVKPGGSLRLSCAASGFTFNEYMMNWVRQPPGKGLEWVSSISGTSTYINYADSVKGRFTISRDNAKNSLYLQMNSLRSDDTAMYYCARGSTGGYWGQGTLITVSS
# VL: DIVMTQTPLSSAVTLGQPASISCRSSQRLVHSDGNTYLSWLHQRPGQPPRLLIYKVSLRFSGVPDRFSGSGAGTDFTLKISRVEAEDVGIYYCMQATQFPLTFGGGTKVEIK
# notes: copies: 2 + 2
# Target: full-length (MLD-containing) EBOV glycoprotein GP1,2, wild type (Ebola virus (EBOV), UniProt Q05320)
# Test: immunostaining of cells or tissue
# Details: one partner purified
# Sequence of full-length (MLD-containing) EBOV glycoprotein GP1,2, wild type (Q05320 33-676): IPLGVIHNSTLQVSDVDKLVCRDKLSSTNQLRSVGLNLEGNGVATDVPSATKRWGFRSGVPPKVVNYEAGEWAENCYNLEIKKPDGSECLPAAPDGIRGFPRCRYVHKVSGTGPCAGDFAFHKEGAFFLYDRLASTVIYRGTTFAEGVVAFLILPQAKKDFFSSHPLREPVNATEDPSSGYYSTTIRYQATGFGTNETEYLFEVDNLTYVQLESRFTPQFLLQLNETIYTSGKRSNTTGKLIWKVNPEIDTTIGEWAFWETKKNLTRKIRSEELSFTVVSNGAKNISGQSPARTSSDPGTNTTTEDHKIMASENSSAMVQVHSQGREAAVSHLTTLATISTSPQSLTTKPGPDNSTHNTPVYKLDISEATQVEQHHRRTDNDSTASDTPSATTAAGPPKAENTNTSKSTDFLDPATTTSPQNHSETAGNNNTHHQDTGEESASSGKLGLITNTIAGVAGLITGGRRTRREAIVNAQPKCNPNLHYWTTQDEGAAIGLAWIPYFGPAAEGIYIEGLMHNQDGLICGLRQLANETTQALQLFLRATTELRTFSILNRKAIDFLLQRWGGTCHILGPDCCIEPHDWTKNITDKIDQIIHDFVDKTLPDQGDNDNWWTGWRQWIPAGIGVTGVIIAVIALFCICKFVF
binder,measurement,value
B1,binding result,binds
